According to patent publication US10941182 (Amgen, dated 2021):
Starred links: 1 amine or outer side, 2 acyl side, 3 side chain; linkers in the order of their positions; H or OH if unused. Non-standard residues stand in square brackets, D forms with d. *: point of attachment. dBip = N[C@H](Cc1ccc(-c2ccccc2)cc1)C(=O)O; Oic = O=C(O)[C@@H]1C[C@@H]2CCCC[C@@H]2N1; Phe(4-Cl) = N[C@@H](Cc1ccc(Cl)cc1)C(=O)O; Phe(4-I) = N[C@@H](Cc1ccc(I)cc1)C(=O)O; γGlu = O=C(O)[C@H](CCC(=O)[*:2])N[*:1]; NMeR = CN[C@@H](CCCNC(=N)N)C(=O)O; Tridecanoyl = CCCCCCCCCCCCC(=O)*; hArg = N=C(N)NCCCC[C@H](N)C(=O)O; Cha = N[C@@H](CC1CCCCC1)C(=O)O; NMeL = CN[C@@H](CC(C)C)C(=O)O; Nle = CCCC[C@H](N)C(=O)O; AEEA = NCCOCCOCC(=O)O

T1: rat APJ receptor (rat, UniProt Q9JHG3 1-377)
T1 sequence (looked up): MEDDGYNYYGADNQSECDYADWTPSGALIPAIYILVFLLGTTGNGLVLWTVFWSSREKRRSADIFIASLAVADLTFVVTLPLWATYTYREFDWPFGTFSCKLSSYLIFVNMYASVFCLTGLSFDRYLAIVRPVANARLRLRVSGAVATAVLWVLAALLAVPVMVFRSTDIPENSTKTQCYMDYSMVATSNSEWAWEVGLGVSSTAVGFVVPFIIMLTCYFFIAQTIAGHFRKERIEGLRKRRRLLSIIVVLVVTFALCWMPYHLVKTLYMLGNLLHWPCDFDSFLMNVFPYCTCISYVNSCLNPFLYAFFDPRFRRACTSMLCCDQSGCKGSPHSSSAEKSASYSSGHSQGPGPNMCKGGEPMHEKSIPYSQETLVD

T2: human APJ receptor (human, UniProt P35414 1-380)
T2 sequence (looked up): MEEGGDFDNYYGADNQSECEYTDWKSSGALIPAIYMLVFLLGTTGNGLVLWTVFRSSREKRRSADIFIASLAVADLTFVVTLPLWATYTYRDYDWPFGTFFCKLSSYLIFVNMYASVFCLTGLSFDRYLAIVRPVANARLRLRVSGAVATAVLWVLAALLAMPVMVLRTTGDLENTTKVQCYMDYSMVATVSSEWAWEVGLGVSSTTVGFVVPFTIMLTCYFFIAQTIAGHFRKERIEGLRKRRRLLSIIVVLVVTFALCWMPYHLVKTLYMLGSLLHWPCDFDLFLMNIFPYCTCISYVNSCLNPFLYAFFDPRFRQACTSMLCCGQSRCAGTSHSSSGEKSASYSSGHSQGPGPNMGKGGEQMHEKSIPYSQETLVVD

B1: SEQ ID NO: 321 (peptide)
peptide: Tridecanoyl-[γGlu][AEEA][AEEA][hArg][Nle]Q[hArg]P[dR][NMeL]AHKG[Oic][Phe(4-I)]P[dBip]-OH
SMILES: CCCCCCCCCCCCC(=O)N[C@@H](CCC(=O)NCCOCCOCC(=O)NCCOCCOCC(=O)N[C@@H](CCCCNC(=N)N)C(=O)N[C@@H](CCCC)C(=O)N[C@@H](CCC(N)=O)C(=O)N[C@@H](CCCCNC(=N)N)C(=O)N1CCC[C@H]1C(=O)N[C@H](CCCNC(=N)N)C(=O)N(C)[C@@H](CC(C)C)C(=O)N[C@@H](C)C(=O)N[C@@H](Cc1c[nH]cn1)C(=O)N[C@@H](CCCCN)C(=O)NCC(=O)N1[C@H](C(=O)N[C@@H](Cc2ccc(I)cc2)C(=O)N2CCC[C@H]2C(=O)N[C@H](Cc2ccc(-c3ccccc3)cc2)C(=O)O)C[C@@H]2CCCC[C@@H]21)C(=O)O
B2: SEQ ID NO: 329 (peptide)
peptide: Tridecanoyl-[γGlu][AEEA][AEEA][hArg][dR]Q[hArg]P[Nle][NMeL]AAKG[Oic][Phe(4-I)]P[dBip]-OH
SMILES: CCCCCCCCCCCCC(=O)N[C@@H](CCC(=O)NCCOCCOCC(=O)NCCOCCOCC(=O)N[C@@H](CCCCNC(=N)N)C(=O)N[C@H](CCCNC(=N)N)C(=O)N[C@@H](CCC(N)=O)C(=O)N[C@@H](CCCCNC(=N)N)C(=O)N1CCC[C@H]1C(=O)N[C@@H](CCCC)C(=O)N(C)[C@@H](CC(C)C)C(=O)N[C@@H](C)C(=O)N[C@@H](C)C(=O)N[C@@H](CCCCN)C(=O)NCC(=O)N1[C@H](C(=O)N[C@@H](Cc2ccc(I)cc2)C(=O)N2CCC[C@H]2C(=O)N[C@H](Cc2ccc(-c3ccccc3)cc2)C(=O)O)C[C@@H]2CCCC[C@@H]21)C(=O)O
B3: SEQ ID NO: 311 (peptide)
peptide: Tridecanoyl-[γGlu][AEEA][AEEA][hArg][dR]Q[hArg]P[Nle][NMeL]SHKG[Oic][Phe(4-I)]P[dBip]-OH
SMILES: CCCCCCCCCCCCC(=O)N[C@@H](CCC(=O)NCCOCCOCC(=O)NCCOCCOCC(=O)N[C@@H](CCCCNC(=N)N)C(=O)N[C@H](CCCNC(=N)N)C(=O)N[C@@H](CCC(N)=O)C(=O)N[C@@H](CCCCNC(=N)N)C(=O)N1CCC[C@H]1C(=O)N[C@@H](CCCC)C(=O)N(C)[C@@H](CC(C)C)C(=O)N[C@@H](CO)C(=O)N[C@@H](Cc1c[nH]cn1)C(=O)N[C@@H](CCCCN)C(=O)NCC(=O)N1[C@H](C(=O)N[C@@H](Cc2ccc(I)cc2)C(=O)N2CCC[C@H]2C(=O)N[C@H](Cc2ccc(-c3ccccc3)cc2)C(=O)O)C[C@@H]2CCCC[C@@H]21)C(=O)O
B4: SEQ ID NO: 323 (peptide)
peptide: Tridecanoyl-[γGlu][AEEA][AEEA][hArg][dR]Q[hArg]P[Nle][NMeL]SAKG[Oic][Phe(4-I)]P[dBip]-OH
SMILES: CCCCCCCCCCCCC(=O)N[C@@H](CCC(=O)NCCOCCOCC(=O)NCCOCCOCC(=O)N[C@@H](CCCCNC(=N)N)C(=O)N[C@H](CCCNC(=N)N)C(=O)N[C@@H](CCC(N)=O)C(=O)N[C@@H](CCCCNC(=N)N)C(=O)N1CCC[C@H]1C(=O)N[C@@H](CCCC)C(=O)N(C)[C@@H](CC(C)C)C(=O)N[C@@H](CO)C(=O)N[C@@H](C)C(=O)N[C@@H](CCCCN)C(=O)NCC(=O)N1[C@H](C(=O)N[C@@H](Cc2ccc(I)cc2)C(=O)N2CCC[C@H]2C(=O)N[C@H](Cc2ccc(-c3ccccc3)cc2)C(=O)O)C[C@@H]2CCCC[C@@H]21)C(=O)O
B5: SEQ ID NO: 333 (peptide)
peptide: Tridecanoyl-[γGlu][AEEA][AEEA][hArg][Nle]Q[hArg]P[dR][NMeL]AAKG[Oic][Phe(4-I)]P[dBip]-OH
SMILES: CCCCCCCCCCCCC(=O)N[C@@H](CCC(=O)NCCOCCOCC(=O)NCCOCCOCC(=O)N[C@@H](CCCCNC(=N)N)C(=O)N[C@@H](CCCC)C(=O)N[C@@H](CCC(N)=O)C(=O)N[C@@H](CCCCNC(=N)N)C(=O)N1CCC[C@H]1C(=O)N[C@H](CCCNC(=N)N)C(=O)N(C)[C@@H](CC(C)C)C(=O)N[C@@H](C)C(=O)N[C@@H](C)C(=O)N[C@@H](CCCCN)C(=O)NCC(=O)N1[C@H](C(=O)N[C@@H](Cc2ccc(I)cc2)C(=O)N2CCC[C@H]2C(=O)N[C@H](Cc2ccc(-c3ccccc3)cc2)C(=O)O)C[C@@H]2CCCC[C@@H]21)C(=O)O
B6: SEQ ID NO: 490 (peptide)
peptide: Tridecanoyl-[γGlu][AEEA][AEEA][hArg]Q[hArg]P[hArg][Cha]SHKG[Oic][Nle]P[Phe(4-Cl)]-OH
SMILES: CCCCCCCCCCCCC(=O)N[C@@H](CCC(=O)NCCOCCOCC(=O)NCCOCCOCC(=O)N[C@@H](CCCCNC(=N)N)C(=O)N[C@@H](CCC(N)=O)C(=O)N[C@@H](CCCCNC(=N)N)C(=O)N1CCC[C@H]1C(=O)N[C@@H](CCCCNC(=N)N)C(=O)N[C@@H](CC1CCCCC1)C(=O)N[C@@H](CO)C(=O)N[C@@H](Cc1c[nH]cn1)C(=O)N[C@@H](CCCCN)C(=O)NCC(=O)N1[C@H](C(=O)N[C@@H](CCCC)C(=O)N2CCC[C@H]2C(=O)N[C@@H](Cc2ccc(Cl)cc2)C(=O)O)C[C@@H]2CCCC[C@@H]21)C(=O)O
B7: SEQ ID NO: 310 (peptide)
peptide: Tridecanoyl-[γGlu][AEEA][AEEA][hArg]Q[hArg]P[NMeR][Cha]SHKG[Oic][Nle]P[Phe(4-Cl)]-OH
SMILES: CCCCCCCCCCCCC(=O)N[C@@H](CCC(=O)NCCOCCOCC(=O)NCCOCCOCC(=O)N[C@@H](CCCCNC(=N)N)C(=O)N[C@@H](CCC(N)=O)C(=O)N[C@@H](CCCCNC(=N)N)C(=O)N1CCC[C@H]1C(=O)N(C)[C@@H](CCCNC(=N)N)C(=O)N[C@@H](CC1CCCCC1)C(=O)N[C@@H](CO)C(=O)N[C@@H](Cc1c[nH]cn1)C(=O)N[C@@H](CCCCN)C(=O)NCC(=O)N1[C@H](C(=O)N[C@@H](CCCC)C(=O)N2CCC[C@H]2C(=O)N[C@@H](Cc2ccc(Cl)cc2)C(=O)O)C[C@@H]2CCCC[C@@H]21)C(=O)O
B8: SEQ ID NO: 315 (peptide)
peptide: Tridecanoyl-[γGlu][AEEA][AEEA][hArg][Nle]Q[hArg]P[dR][NMeL]SHKG[Oic][Phe(4-I)]P[dBip]-OH
SMILES: CCCCCCCCCCCCC(=O)N[C@@H](CCC(=O)NCCOCCOCC(=O)NCCOCCOCC(=O)N[C@@H](CCCCNC(=N)N)C(=O)N[C@@H](CCCC)C(=O)N[C@@H](CCC(N)=O)C(=O)N[C@@H](CCCCNC(=N)N)C(=O)N1CCC[C@H]1C(=O)N[C@H](CCCNC(=N)N)C(=O)N(C)[C@@H](CC(C)C)C(=O)N[C@@H](CO)C(=O)N[C@@H](Cc1c[nH]cn1)C(=O)N[C@@H](CCCCN)C(=O)NCC(=O)N1[C@H](C(=O)N[C@@H](Cc2ccc(I)cc2)C(=O)N2CCC[C@H]2C(=O)N[C@H](Cc2ccc(-c3ccccc3)cc2)C(=O)O)C[C@@H]2CCCC[C@@H]21)C(=O)O
B9: SEQ ID NO: 317 (peptide)
peptide: Tridecanoyl-[γGlu][AEEA][AEEA][hArg][dR]Q[hArg]P[Nle][NMeL]AHKG[Oic][Phe(4-I)]P[dBip]-OH
SMILES: CCCCCCCCCCCCC(=O)N[C@@H](CCC(=O)NCCOCCOCC(=O)NCCOCCOCC(=O)N[C@@H](CCCCNC(=N)N)C(=O)N[C@H](CCCNC(=N)N)C(=O)N[C@@H](CCC(N)=O)C(=O)N[C@@H](CCCCNC(=N)N)C(=O)N1CCC[C@H]1C(=O)N[C@@H](CCCC)C(=O)N(C)[C@@H](CC(C)C)C(=O)N[C@@H](C)C(=O)N[C@@H](Cc1c[nH]cn1)C(=O)N[C@@H](CCCCN)C(=O)NCC(=O)N1[C@H](C(=O)N[C@@H](Cc2ccc(I)cc2)C(=O)N2CCC[C@H]2C(=O)N[C@H](Cc2ccc(-c3ccccc3)cc2)C(=O)O)C[C@@H]2CCCC[C@@H]21)C(=O)O
B10: SEQ ID NO: 327 (peptide)
peptide: Tridecanoyl-[γGlu][AEEA][AEEA][hArg][Nle]Q[hArg]P[dR][NMeL]SAKG[Oic][Phe(4-I)]P[dBip]-OH
SMILES: CCCCCCCCCCCCC(=O)N[C@@H](CCC(=O)NCCOCCOCC(=O)NCCOCCOCC(=O)N[C@@H](CCCCNC(=N)N)C(=O)N[C@@H](CCCC)C(=O)N[C@@H](CCC(N)=O)C(=O)N[C@@H](CCCCNC(=N)N)C(=O)N1CCC[C@H]1C(=O)N[C@H](CCCNC(=N)N)C(=O)N(C)[C@@H](CC(C)C)C(=O)N[C@@H](CO)C(=O)N[C@@H](C)C(=O)N[C@@H](CCCCN)C(=O)NCC(=O)N1[C@H](C(=O)N[C@@H](Cc2ccc(I)cc2)C(=O)N2CCC[C@H]2C(=O)N[C@H](Cc2ccc(-c3ccccc3)cc2)C(=O)O)C[C@@H]2CCCC[C@@H]21)C(=O)O

Columns and labels:
rat APJ receptor = biological target: T1, rat APJ receptor; assay: cell-based or functional assay
human APJ receptor = biological target: T2, human APJ receptor; assay: cell-based or functional assay

| Binder | EC50 Rat APJ Receptor (rat APJ receptor) [nM] | EC50 Human APJ Receptor (human APJ receptor) [nM] |
| --- | --- | --- |
| B1 | 29.1 | 17.9 |
| B2 | 36.1 | 37.5 |
| B3 | 37.4 | 34.7 |
| B4 | 5.29 | 2.51 |
| B5 | 46.6 | 36.1 |
| B6 | 0.102 | 0.0277 |
| B7 | 0.363 | 0.226 |
| B8 | 4.9 | 3.04 |
| B9 | 63.9 | 56.8 |
| B10 | 14.8 | 14.4 |
